This note sets out measurements from publication PMC7684300 (Cell Discovery, 2020).

Experiment [1] has as its target T1, human ORC1 (origin recognition complex subunit 1), full-length (human, UniProt Q13415 1-861).
T1 construct: Origin recognition complex subunit 1, human, full-length codon-optimized synthetic gene; No removal of the tag is described; HsORC1–5 was eluted from Streptactin beads with desthiobiotin; Samples for cryo-EM were mildly cross-linked with glutaraldehyde (GraFix); also called HsORC1; source: Sf21 insect cells, MultiBac baculovirus, co-overexpressed with the other ORC subunits; not shown: twin-strep …
T1 sequence (looked up): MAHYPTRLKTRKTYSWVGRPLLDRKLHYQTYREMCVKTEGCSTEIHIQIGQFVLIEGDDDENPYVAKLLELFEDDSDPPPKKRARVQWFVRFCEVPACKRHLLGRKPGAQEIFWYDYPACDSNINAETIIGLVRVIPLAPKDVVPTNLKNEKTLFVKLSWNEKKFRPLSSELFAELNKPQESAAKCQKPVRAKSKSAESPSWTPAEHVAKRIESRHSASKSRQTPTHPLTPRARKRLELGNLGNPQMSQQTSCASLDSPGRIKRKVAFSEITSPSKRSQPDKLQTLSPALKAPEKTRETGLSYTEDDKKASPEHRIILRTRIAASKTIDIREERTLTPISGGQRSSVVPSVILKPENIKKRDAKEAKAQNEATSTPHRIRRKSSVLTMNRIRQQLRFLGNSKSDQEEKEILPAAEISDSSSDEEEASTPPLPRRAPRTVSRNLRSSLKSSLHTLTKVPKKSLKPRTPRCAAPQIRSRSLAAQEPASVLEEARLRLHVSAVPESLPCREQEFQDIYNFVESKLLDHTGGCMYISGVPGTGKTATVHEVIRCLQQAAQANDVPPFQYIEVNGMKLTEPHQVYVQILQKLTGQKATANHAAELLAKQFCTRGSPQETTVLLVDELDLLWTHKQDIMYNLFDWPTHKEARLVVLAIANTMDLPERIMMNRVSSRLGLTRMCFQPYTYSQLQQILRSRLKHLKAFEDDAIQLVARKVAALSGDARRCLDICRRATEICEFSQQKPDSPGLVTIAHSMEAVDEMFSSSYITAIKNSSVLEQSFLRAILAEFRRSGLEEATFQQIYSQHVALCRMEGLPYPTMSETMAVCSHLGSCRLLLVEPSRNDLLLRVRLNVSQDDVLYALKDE
The experiment is described as follows: cryo-EM structure; HsORC1–5 purified by two steps (anti-HA beads, Streptactin beads) after high-salt treatment, mild fixation by GraFix; map at 4.4 Å, State I 5.0 Å, State II 4.8 Å, four subgroups by local classification on ORC1-AAA+. To be noted: both partners purified.

In experiment [2] the target is T1, human ORC1 (origin recognition complex …). The experiment is described as follows: co-IP; anti-Flag immunoprecipitation (M2-flag affinity beads, eluted with 0.5 mg/mL flag peptide) of N-terminal Flag-tagged ORC2 from soluble lysate of insect cells co-overexpressing ORC1 to ORC6; lysis buffer A: 25 mM HEPES-KOH pH 7.6, 0.2 M KCl, 5 mM ATP, 10% glycerol, 0.05% NP-40. Conditions: partners not purified.

B1: human ORC4 (origin recognition complex subunit 4), full-length (natural protein, UniProt O43929 1-436, looked up)
chain: MSSRKSKSNSLIHTECLSQVQRILRERFCRQSPHSNLFGVQVQYKHLSELLKRTALHGESNSVLIIGPRGSGKTMLINHALKELMEIEEVSENVLQVHLNGLLQINDKIALKEITRQLNLENVVGDKVFGSFAENLSFLLEALKKGDRTSSCPVIFILDEFDLFAHHKNQTLLYNLFDISQSAQTPIAVIGLTCRLDILELLEKRVKSRFSHRQIHLMNSFGFPQYVKIFKEQLSLPAEFPDKVFAEKWNENVQYLSEDRSVQEVLQKHFNISKNLRSLHMLLMLALNRVTASHPFMTAVDLMEASQLCSMDSKANIVHGLSVLEICLIIAMKHLNDIYEEEPFNFQMVYNEFQKFVQRKAHSVYNFEKPVVMKAFEHLQQLELIKPMERTSGNSQREYQLMKLLLDNTQIMNALQKYPNCPTDVRQWATSSLSWL
notes: Origin recognition complex subunit 4, human, full-length codon-optimized synthetic gene; No tag is named for this subunit; Samples for cryo-EM were mildly cross-linked with glutaraldehyde (GraFix); also called HsORC4; source: Sf21 insect cells, MultiBac baculovirus, co-overexpressed with the other ORC subunits
As to B1, the binding result in experiment [1] is recorded as “binds”.

B2: human ORC2 (origin recognition complex subunit 2), full-length (natural protein, UniProt Q13416 1-577, looked up)
chain: MSKPELKEDKMLEVHFVGDDDVLNHILDREGGAKLKKERAQLLVNPKKIIKKPEYDLEEDDQEVLKDQNYVEIMGRDVQESLKNGSATGGGNKVYSFQNRKHSEKMAKLASELAKTPQKSVSFSLKNDPEITINVPQSSKGHSASDKVQPKNNDKSEFLSTAPRSLRKRLIVPRSHSDSESEYSASNSEDDEGVAQEHEEDTNAVIFSQKIQAQNRVVSAPVGKETPSKRMKRDKTSDLVEEYFEAHSSSKVLTSDRTLQKLKRAKLDQQTLRNLLSKVSPSFSAELKQLNQQYEKLFHKWMLQLHLGFNIVLYGLGSKRDLLERFRTTMLQDSIHVVINGFFPGISVKSVLNSITEEVLDHMGTFRSILDQLDWIVNKFKEDSSLELFLLIHNLDSQMLRGEKSQQIIGQLSSLHNIYLIASIDHLNAPLMWDHAKQSLFNWLWYETTTYSPYTEETSYENSLLVKQSGSLPLSSLTHVLRSLTPNARGIFRLLIKYQLDNQDNPSYIGLSFQDFYQQCREAFLVNSDLTLRAQLTEFRDHKLIRTKKGTDGVEYLLIPVDNGTLTDFLEKEEEEA
notes: Origin recognition complex subunit 2, human, full-length codon-optimized synthetic gene; Samples for cryo-EM were mildly cross-linked with glutaraldehyde (GraFix); also called HsORC2; source: Sf21 insect cells, MultiBac baculovirus, co-overexpressed with the other ORC subunits; anti-HA then Streptactin beads for HsORC1–5); not shown: 3x Flag, N-terminal, kept
As to B2, the binding result in experiment [2] was “binds”.

B3: human ORC5 (origin recognition complex subunit 5), full-length (natural protein, UniProt O43913 1-435, looked up)
chain: MPHLENVVLCRESQVSILQSLFGERHHFSFPSIFIYGHTASGKTYVTQTLLKTLELPHVFVNCVECFTLRLLLEQILNKLNHLSSSEDGCSTEITCETFNDFVRLFKQVTTAENLKDQTVYIVLDKAEYLRDMEANLLPGFLRLQELADRNVTVLFLSEIVWEKFRPNTGCFEPFVLYFPDYSIGNLQKILSHDHPPEYSADFYAAYINILLGVFYTVCRDLKELRHLAVLNFPKYCEPVVKGEASERDTRKLWRNIEPHLKKAMQTVYLREISSSQWEKLQKDDTDPGQLKGLSAHTHVELPYYSKFILIAAYLASYNPARTDKRFFLKHHGKIKKTNFLKKHEKTSNHLLGPKPFPLDRLLAILYSIVDSRVAPTANIFSQITSLVTLQLLTLVGHDDQLDGPKYKCTVSLDFIRAIARTVNFDIIKYLYDFL
notes: Origin recognition complex subunit 5, human, full-length codon-optimized synthetic gene; Samples for cryo-EM were mildly cross-linked with glutaraldehyde (GraFix); also called HsORC5; source: Sf21 insect cells, MultiBac baculovirus, co-overexpressed with the other ORC subunits; not shown: HA, C-terminal, kept
As for B3, the binding result in experiment [1] was “binds”.
